These results are taken from patent US20240067714A1.

Experiment [1] concerns the target FcγRIIIA (CD16a, V167) (UniProt P08637). Put plainly: SPR, heterogenous ligand model, Mean KD2.
Experiment [2] has as its target FcγRI (CD64) (UniProt P12314). Put plainly: SPR, heterogenous ligand model, Mean KD2.
Experiment [3] has as its target FcγRIIIA (CD16a, F167) (UniProt P08637). Put plainly: SPR, heterogenous ligand model, Mean KD2.
The target of experiment [4] is Macaque TNFα (macaque) (UniProt P79337). Put plainly: SPR, macaque TNFα, reference.
Experiment [5] deals with FcγRIIA (CD32a, H167) (UniProt P12318). Put plainly: SPR, steady state model, Mean.
Experiment [6] has as its target FcγRIIB (CD32b) (UniProt P31994). Put plainly: SPR, steady state model, Mean.
The target in experiment [7] is FcRn (FCGRT&B2M) (UniProt P55899). Put plainly: SPR, steady state model, Mean.
For experiment [8], the target named is FcγRIIIA (CD16a, V167) (UniProt P08637). Put plainly: SPR, heterogenous ligand model, Mean KD1.
Experiment [9] has as its target FcγRI (CD64) (UniProt P12314). Put plainly: SPR, heterogenous ligand model, Mean KD1.
Experiment [10] addresses FcγRIIIA (CD16a, F167) (UniProt P08637). Description: SPR, heterogenous ligand model, Mean KD1.
Experiment [11] has as its target Macaque TNFα (macaque) (UniProt P79337). Description: ELISA, macaque TNFα, reference.
The target of experiment [12] is FcγRIIIB (CD16b) (UniProt O75015). Description: SPR, Mean (one KD printed).
Experiment [13] concerns the target Human TNFα (human) (UniProt P01375). Put plainly: Binding ELISA to hTNFα.
Experiment [14] concerns the target FcγRIIIA (CD16a, V167) (UniProt P08637). Put plainly: SPR, heterogenous ligand model, KD1, against HUMIRA.
Experiment [15] concerns the target FcγRI (CD64) (UniProt P12314). Described as above.
In experiment [16] the target is FcγRIIIA (CD16a, F167) (UniProt P08637). Described as above.
Experiment [17] has as its target Human TNFα (human) (UniProt P01375). Put plainly: cell-based or functional assay.
Experiment [18] has the same target. Description: SPR, human TNFα, relative to HUMIRA.
For experiment [19], the target named is Macaque TNFα (macaque) (UniProt P79337). Description: ELISA, macaque TNFα, relative to HUMIRA.
In experiment [20] the target is FcγRIIA (CD32a, H167) (UniProt P12318). Put plainly: SPR, steady state model, against HUMIRA.
The target in experiment [21] is FcγRIIB (CD32b) (UniProt P31994). Description: SPR, steady state model, against HUMIRA.
The target of experiment [22] is FcRn (FCGRT&B2M) (UniProt P55899). Put plainly: SPR, steady state model, against HUMIRA.
The target in experiment [23] is FcγRIIIB (CD16b) (UniProt O75015). Description: SPR, against HUMIRA.
In experiment [24] the target is FcγRIIIA (CD16a, V167) (UniProt P08637). Description: SPR, heterogenous ligand model, KD2, against HUMIRA.
For experiment [25], the target named is FcγRI (CD64) (UniProt P12314). The experiment is described as above.
Experiment [26] concerns the target FcγRIIIA (CD16a, F167) (UniProt P08637). The experiment is described as above.
Experiment [27] concerns the target Human TNFα (human) (UniProt P01375). Put plainly: ELISA, human TNFα, relative to HUMIRA.
Experiment [28] concerns the target Macaque TNFα (macaque) (UniProt P79337). Description: SPR, macaque TNFα, relative to HUMIRA.

As for HUMIRA (adalimumab) (antibody), the Kd in experiment [1] worked out at 0.0766 µM; in experiment [2], 0.00686 µM; in [3], 1.11 µM; in [5] it was 0.723 µM; in [6], 3.04 µM; in [7] it was 0.778 µM. In addition, the dissociation constant (Kd) came to 0.0801 µM in experiment [8], 0.000566 µM in experiment [9], 0.26 µM in [10] and 1.65 µM in experiment [12]. In addition, the Rel. binding affinity in experiment [4] came out at 100%. In experiment [11], this substance gave a Rel. binding of 100%.

For the substance Adalimumab K84N (A-84S) (antibody), in experiment [13], the Normalized EC50 vs HUMIRA was determined as 121%.

“Adalimumab K84N-D86N (A-8486S) (antibody)”: the Kd came to 0.0274 µM in experiment [1]; 0.00627 µM in experiment [2]; 0.123 µM in [3]; 0.785 µM in [5]; 2.2 µM in experiment [6]; 1.1 µM in experiment [7]. The Kd in [8] came out at 0.00269 µM; in experiment [9], 0.000326 µM; in experiment [10], 0.0122 µM; in experiment [12], 0.152 µM. In addition, the Fold change (KD(HUMIRA)/KD(A-8486S)) in experiment [14] is 29.8 fold; in experiment [15], 1.7 fold; in experiment [16], 21.3 fold; in experiment [20], 0.9 fold; in experiment [21] it was 1.4 fold; in [22], 0.7 fold. In addition, the Fold change (KD(HUMIRA)/KD(A-8486S)) in [23] is 10.9 fold; in experiment [24], 2.8 fold; in experiment [25], 1.1 fold; in [26], 9 fold. The Rel. binding affinity (KD(HUMIRA)/KD(A-8486S)*100) in experiment [14] amounted to 2980%; in experiment [15] it was 174%; in experiment [16], 2130%; in [20], 92%; in experiment [21] it was 138%; in [22] it was 71%. In addition, the Rel. binding affinity (KD(HUMIRA)/KD(A-8486S)*100) in experiment [23] came to 1090%; in experiment [24], 280%; in [25] it was 109%; in [26], 902%. The substance further registered an L929 apoptosis, Rel. IC50 in experiment [17] of 89%. For the same substance, the Rel. binding affinity in [18] came to 84%; in [28], 77%. Further, the Rel. binding amounted to 99% in [19] and 86% in [27]. The Normalized EC50 vs HUMIRA in experiment [13] was 116%.
